From PMC6471090 come the findings set out here.

Test [1] addresses wild-type green fluorescent protein (GFP) (Aequorea victoria) [GFP: P42212]. Briefly: single-molecule photobleaching step counting and fluorescence intensity distribution (TIRFM); purified protein, 0.17 μg/mL solution, single spots imaged on the coverslip surface; 473-nm laser; self-association (monomer to dimer).
For test [2] the target is unchanged. Briefly: single-molecule photobleaching step counting and fluorescence intensity distribution (TIRFM); purified protein, 0.57 μg/mL solution, single spots imaged on the coverslip surface; 473-nm laser; self-association (monomer to dimer).

Regarding “wild-type green fluorescent protein (GFP) (from UniProt P42212 1-238) (natural protein)”, in test [1], the percent of spots with one-step photobleaching (monomers) was 96.5%; the percent of spots with two-step photobleaching (dimers) was determined as 3.5%; the stoichiometry N – broadly, the number of molecules, sites or subunits per partner or assembly – came out at 2. In test [2], this substance yielded a percent of spots in the major intensity population (monomers) of 97% and a percent of spots with two-step photobleaching (dimers) of 8.6%.
